# Results reported in patent publication US20230122991A1, “GROWTH FACTOR FORMULATION FOR CONDITION ASSOCIATED WITH OTIC EVENT” (OTONOMY, INC., priority 2020, published 2023).
# B1: brain-derived neurotrophic factor (protein, UniProt P23560 129-247, looked up)
# Neurotrophic factor BDNF: HSDPARRGELSVCDSISEWVTAADKKTAVDMSGGTVTVLEKVPVSKGQLKQYFYETKCNPMGYTKEGCRGIDKRHWNSQCRTTQSYVRALTMDSKKRIGWRFIRIDTSCVCTLTIKRGR
# modifications: Neurotrophic factor BDNF in 16% poloxamer 407 gel
# notes: Human recombinant BDNF
# Columns and labels:
# [1] = test system: adult male rats bilaterally exposed to noise; assay: Noise-induced cochlear synaptopathy, ABR and wave I amplitude at various BDNF concentrations (Example K); format: in vivo, rat; conditions: at all three BDNF concentrations (0.005%, 0.05%, 0.5% BDNF in P407), vs P407 vehicle alone
# Experimental: (§1) Animals: Male Sprague-Dawley rats (5-6 months of age) were used for efficacy studies and females (2-3 months) were used for pharmacokinetic studies.
# Formulations: Human recombinant BDNF was suspended in the thermoreversible polymer Poloxamer 407 (16%) to reach a range of BDNF concentrations (0.005%, 0.05%, and 0.5% by weight).
# (§2) Intratympanic (IT) injection: Formulations were administered under anesthesia as a single IT injection (20 μl) through the tympanic membrane into the middle ear, targeting the round window membrane (RWM).
# Noise-induced cochlear synaptopathy: Rats received a single acoustic trauma (105 dB SPL, 8-16 kHz, 1 h) under anesthesia. 24 hours later (Day 1) animals received a single bilateral IT injection of the treatment regimens. Auditory function (ABR and ABR wave 1 amplitude) was monitored at day 1 and then every 7 days for 28 days, as illustrated in FIG. 16. At termination (Day 28), cochleae were collected and assessed for evidence of cochlear synaptopathy (IHC synaptic puncta counts).
# Intratympanic BDNF improves Auditory Brainstem Response (ABR) thresholds and wave I amplitudes in adult rats. The Auditory Brainstem Response (ABR) is an objective test that measures hearing sensitivity and can identify abnormalities in the peripheral auditory system and the auditory pathway up through the brainstem. […]
# [2] = test system: adult male rats bilaterally exposed to noise; assay: Noise-induced cochlear synaptopathy, ABR and wave I amplitude after delayed intratympanic injection (Example L); format: in vivo, rat; conditions: for ABR threshold shift: ABR at day 28, FIG. 21; for wave I amplitudes: day 28, FIG. 22
# Experimental: as §1
# Formulations: Human recombinant BDNF was suspended in the thermoreversible polymer Poloxamer 407 (16%) to reach a BDNF concentration of 0.005%.
# as §2
# Noise-induced cochlear synaptopathy: Rats received a single acoustic trauma (105 dB SPL, 8-16 kHz, 1 h) under anesthesia. […] Auditory function (ABR and ABR wave 1 amplitude) was monitored at day 28. At termination (Day 28), cochleae were collected and assessed for evidence of cochlear synaptopathy (IHC synaptic puncta counts).
# Intratympanic BDNF Injected 1, 3, or 7 Days After Acoustic Trauma improves Auditory Brainstem Response (ABR) thresholds and wave I amplitudes in adult rats. The Auditory Brainstem Response (ABR) is an objective test that measures hearing sensitivity and can identify abnormalities in the peripheral auditory system and the auditory pathway up through the brainstem. Adult male rats were bilaterally exposed to noise followed by an intratympanic injection of 0.005% BDNF in P407 1 day, 3 days, 7 days, or 14 days after noise exposure. ABR recordings were obtained at day 28.
# The ABR Wave I amplitude is an indicator of the strength of the distal cochlear nerve signal, i.e., the response of the spiral ganglion neurons/synapses.
# SGNs = assay: SGN complexity, dissociated SGNs (Example D); format: cell-based, rat; conditions: differences upon treatment, FIG. 7D
# Source text: SGNs were immunostained, imaged, and batch analyzed with PerkinElmer Harmony 4.6 software. Changes in the complexities of SGNs upon treatment with various agents were examined. […] All of the images in a single well were stitched together and analyzed. SGN somas are shown in the upper right panel and SGN neurites are shown in the lower left panel. As shown in the lower right panel, each neurite tree is assigned to a single cell for analysis. Depending on the stitching, occasionally neurites will not meet the criteria due to gaps that exceed a user-defined threshold.
# noise exposed adult rats = assay: Noise-induced hearing loss/synaptopathy, ABR wave I amplitude (Example A1); format: in vivo, rat; conditions: sustained release formulation, 0.005% BDNF in Poloxamer 407, single unilateral intratympanic administration 24 hrs after noise; compared to vehicle treatment; FIG. 3A
# Experimental: Male rats (Charles River) approximately 10-11 months of age served as subjects (N=6 per group). Prior to any procedures, animals were anesthetized using a combination of xylazine (10 mg/kg) and ketamine (90 mg/kg) for up to one hour via the intraperitoneal route. If needed, an intraoperative booster was administered intraperitoneally representing one-tenth of the original dose.
# Noise exposure—Anesthetized animals (4 at a time) were placed in an enclosure and exposed to noise. The characteristics of the acoustic trauma were as follows: a single period of 1 h, sound pressure level of 105 dB SPL with a narrow band pass of 8-16 kHz. […]
# Auditory Brainstem Response (ABR) assessment (wave 1)—During the procedure, additional anesthetic (xylazine and ketamine) was administered if needed to maintain the depth of anesthesia sufficient to insure immobilization and relaxation. ABRs were recorded in an electrically and acoustically shielded chamber, one ear at a time. […] Acoustic calibration was performed with TDT software (SigCal) and thresholds were expressed as dB SPL in conditions identical to that of threshold recordings in animals. […] Wave 1 was quantified by averaging the wave 1 amplitude from intensities ranging between 60-80 dB SPL.
# Animals were exposed to noise on Day 0. […] ABR threshold and ABR wave I amplitude were measured weekly in live animals for up to 4 weeks. […]
# [3] = 0.005% BDNF in P407 injected 1, 3, or 7 days after noise exposure
# [4] = 0.005% BDNF in P407 injected 14 days after noise exposure
molecule,measurement,setting,value
B1,ABR threshold shift,"[1]; intratympanic injection 24 hours after noise exposure, FIG. 17",more rapid recovery of initial threshold shifts and overall reduced levels of hearing loss
same,wave I amplitudes,[1]; FIG. 18,significant improvements
same,ABR threshold shift,[2]; [3],more rapid recovery of initial threshold shifts and overall reduced levels of hearing loss
same,wave I amplitudes,[2]; [3],significant improvements
same,ABR threshold shift,[2]; [4],did not showed a more rapid recovery of initial threshold shifts and overall reduced levels of hearing loss
same,wave I amplitudes,[2]; [4],did not show significant improvements
same,"total neurite length, total number of extremities, segments, and nodes per cell",SGNs,not statistically significant
same,hearing function (wave I amplitude),noise exposed adult rats,improved
